Measured values from publication PMC5736104 (Nature, 2017).

Target: the molecule itself
Test: cryo-EM structure

B1: Hrd1, truncated after the RING finger domain (amino acids 1-407) (domain or fragment, S. cerevisiae, UniProt Q08109 1-407, looked up)
chain: MVPENRRKQLAIFVVVTYLLTFYCVYSATKTSVSFLQVTLKLNEGFNLMVLSIFILLNSTLLWQLLTKLLFGELRLIEHEHIFERLPFTIINTLFMSSLFHERYFFTVAFFGLLLLYLKVFHWILKDRLEALLQSINDSTTMKTLIFSRFSFNLVLLAVVDYQIITRCISSIYTNQKSDIESTSLYLIQVMEFTMLLIDLLNLFLQTCLNFWEFYRSQQSLSNENNHIVHGDPTDENTVESDQSQPVLNDDDDDDDDDRQFTGLEGKFMYEKAIDVFTRFLKTALHLSMLIPFRMPMMLLKDVVWDILALYQSGTSLWKIWRNNKQLDDTLVTVTVEQLQNSANDDNICIICMDELIHSPNQQTWKNKNKKPKRLPCGHILHLSCLKNWMERSQTCPICRLPVFDEK
- stoichiometry N: 2
